From patent publication US20240317852A1 (Molecular Partners, published 2024)
Positions count from the first letter of the chain named.

T1: biotinylated splice variant of the extracellular domain of human CD33 (residues 140-259, constant domain … (human, UniProt P20138 140-259, biotinylated with BirA-GST (Avi tag)))
T1 construct: Bought from Evitria; a second Fc chain may be present, not described; also called splice variant CD33; spliced variant; not shown: C-terminal Fc tag and Avi tag
T1 chain: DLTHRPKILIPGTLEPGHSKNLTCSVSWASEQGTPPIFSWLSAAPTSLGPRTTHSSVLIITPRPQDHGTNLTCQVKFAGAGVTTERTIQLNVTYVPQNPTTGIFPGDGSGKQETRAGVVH

B1: DARPin® protein #9 in TCE format (formatted with a CD3-specific ankyrin repeat domain) (designed binder)
chain: MRGSHHHHHHGSDLGYKLLWAASAGQDDEVRILLAAGADVNAKDKDGATPLHFAAAKGHLEIVEVLLKAGADVNAKDNRGATPLHYVAAASGHLEIVEVLLKAGADVNAQDEWGNTPADLAAIYGHGDIAEVLQKAA
notes: Crude extract HTRF construct also carried a C-terminal Flag tag; not shown: which one,
B2: DARPin® protein #1 in TCE format (formatted with a CD3-specific ankyrin repeat domain) (designed binder)
chain: MRGSHHHHHHGSDLGWKLLLAASRGQDDEVRILLAAGADVNAKDIDEGYTPLHIAAYYGHLEIVEVLLKAGADVNAKDRYGKTPLHLAAISGHEDIAEVLLKAGADVNAQDDKGDTPADLAADYGHEDIAEVLQKAA
notes: not shown: which one,
B3: DARPin® protein #7 in TCE format (formatted with a CD3-specific ankyrin repeat domain) (designed binder)
chain: MRGSHHHHHHGSDLGLKLLRAAYDGQDDEVRILLAAGADVNAKDWQGFTPLHYAAVLGHLEIVEVLLKAGADVNAKDQEGATPLHLAALHGHLEIVEVLLKAGADVNAQDESGWTPADLAAKWGHEDIAEVLQKAA
notes: as for B1
B4: DARPin® protein #8 in TCE format (formatted with a CD3-specific ankyrin repeat domain) (designed binder)
chain: MRGSHHHHHHGSDLGWKLLSAATLGQDDEVRILLAAGADVNAKDEWGKTPLHWAASTGHLEIVEVLLKAGADVNAKDLWGHTPLHEAAAKGHLEIVEVLLKAGADGNAQDNIGDTPADLAAYQGHEDIAEVLQKAA
notes: as for B1
B5: DARPin® protein #15 in TCE format (formatted with a CD3-specific ankyrin repeat domain) (designed binder)
chain: MRGSHHHHHHGSDLGKKLLQAARAGQLDEVRELLKAGADVNAKDLIGWTPLHLAAHYGHLEIVEVLLKAGADVNAKDAQGWTPLHIAAWEGHLEIVEVLLKAGADVNAKDWTGETPLHLAAFEGHLEIVEVLLKAGADVNAQDKSGKTPADLAARAGHQDIAEVLQKAA
notes: as for B1
B6: DARPin® protein #5 in TCE format (formatted with a CD3-specific ankyrin repeat domain) (designed binder)
chain: B5 chain with G15S, L45Q, W48Q, H56Q, Y57S, A78T, Q79E, I86V, F122Y, E123Q
notes: as for B1
B7: DARPin® protein #16 in TCE format (formatted with a CD3-specific ankyrin repeat domain) (designed binder)
chain: MRGSHHHHHHGSDLGKKLLQAARAGQLDEVRELLKAGADVNAKDHQGETPLHLAASQGHLEIVEVLLKAGADVNAKDLAGYTPLHLAAWTGHLEIVEVLLKAGADVNAKDQWGRTPLHIAAASGHLEIVEVLLKAGADVNAQDKSGKTPADLAARAGHQDIAEVLQKAA
notes: as for B1
B8: DARPin® protein #3 in TCE format (formatted with a CD3-specific ankyrin repeat domain) (designed binder)
chain: MRGSHHHHHHGSDLGVKLLRAAFHGQDDEVRILLAAGADVNAKDTDGETPLHYAAQFGHLEIVEVLLKAGADVNAKDAYGATPLHWAAWHGHLEIVEVLLKAGADVNAQDVSGATPADLAAKVGHEDIAEVLQKAA
notes: as for B1
B9: DARPin® protein #14 in TCE format (formatted with a CD3-specific ankyrin repeat domain) (designed binder)
chain: MRGSHHHHHHGSDLGWKLLNAAIAGQDDEVRILLAAGADVNAKDTEYGWTPLHIAASDGHLEIVEVLLKAGADVNAKDYAGSTPLHAAAFVGHLEIVEVLLKAGADVNAQDHQGQTPADLAAQQGHVDIAEVLQKAA
notes: as for B1
B10: DARPin® protein #1, monovalent CD33 specific binding protein (designed binder)
chain: B2 chain
notes: Crude extract in the HTRF; also called DARPin® protein #91 [sic]
B11: DARPin® protein #14, monovalent CD33 specific binding protein (designed binder)
chain: B9 chain
notes: Crude extract in the HTRF

Biological target: T1, biotinylated splice variant of the …
Experiment: SPR (ProteOn XPR36), biotinylated splice variant CD33 on NLC chip, DARPin at 50 nM, single trace
B1 gave a Kd of 1.9 nM.

Biological target: T1, biotinylated splice variant of the …
Experiment: SPR (ProteOn XPR36), biotinylated splice variant CD33 on NLC chip
B2: no binding (tested: 50 nM). B3: no binding (tested: 50 nM). B4: no binding (tested: 50 nM). B5: no binding (tested: 50 nM). B6: no binding (tested: 50 nM). B7: no binding (tested: 50 nM). B8: no binding (tested: 50 nM). B9: no binding (tested: 50 nM).

Biological target: T1, biotinylated splice variant of the …
Experiment: HTRF, 6 nM biotinylated hCD33-C2-Fc(kih)-Avi, Strep-Tb and anti-6His-d2
Experimental: First, a binding experiment has been performed against full-length (V/C2 domains) and truncated CD33 (C2 domain) by HTRF, using crude extracts of the three CD33-specific binding proteins DARPin® protein #1. DARPin® protein #9 and DARPin® protein #14. Binding to the CD33 target was detected using Strep-Tb and anti-His-D2 HTRF reagents. In brief, crude extract of DARPi® protein #1, DARPin® protein #9 and DARPin® protein #14 was diluted 1:250 (final 1:1000) with PBSTB and added into a 384-well plate (PerkinElmer, 6008280). Then, the biotinylated target_hCD33-Fc(kih)-Avi (full-length CD33; purchased from Evitria) and hCD33-C2-Fc(kih)-Avi (truncated CD33; purchased from Evitria) respectively was diluted to 8 nM (final 6 nM) and mixed with the HTRF reagents Mab Anti-6His-d2 and Strep-Tb, both 1:200 diluted (final 1:400). As depicted in FIG. 5, all three CD33 specific binding proteins DARPin® protein #1. DARPin® protein #9 and DARPin® protein #14 show binding to the full-length CD33 but only DARPin® protein #9 binds to the truncated CD33 target.
B10: no binding. B11: no binding.
